This note sets out measurements from the supplement of paper PMC11316812.

± gives the standard deviation of the averaged measurements.

One data set has as its system MCF7. The data set can be described thus: percentage of EdU-negative (G0-arrested) nuclei per well, 72 h; higher = more G0 arrest. The note with it: reference: sequence is the full UniProt precursor, the tested protein was the secreted form or ectodomain.
The subject of the next data set is hTERT-HMEC. Described as above. The note with it: reference: sequence is the full UniProt precursor, the tested protein was the secreted form or ectodomain.
The mark [1] stands for this setting: protein concentration 0.0225 µM.
[2] abbreviates: protein concentration 0.03034 µM.
The mark [3] stands for this setting: protein concentration 0.3034 µM.
Setting [4] is: protein concentration 0.0257143 µM.
The mark [5] stands for this setting: protein concentration 0.257143 µM.
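Note: secreted proteins added to cultured cells, EdU pulse at the end, nuclei found by Hoechst imaging, EdU status from nuclear versus surrounding ring intensity ratio, PBS as neutral control.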

Regarding “MQCRLPRGLAGALLTLLCMGLLCLRYHLNLSPQRVQGTPELSQPNPGPPKLQLHDVFIAVKTTRAFHRLRLELLLDTWVSRTREQTFVFTDSPDKGLQERLGSHLVVTNCSAEHSHPALSCKMAAEFDTFLASGLRWFCHVDDDNYVNPRALLQLLRAFPLARDVYVGRPSLNRPIHASEPQPHNRTRLVQFWFATGGAGFCINRKLALKMAPWASGSRFMDTSALIRLPDDCTMGYIIECKLGGRLQPSPLFHSHLETLQLLRTAQLPEQVTLSYGVFEGKLNVIKLQGPFSPEEDPSRFRSLHCLLYPDTPWCPQLGAR”, the “percentage of EdU-negative” value in the data set on MCF7 (setting [1]) came to 25.3 ± 2.3%; in the data set with MCF7 (protein concentration 0.225 µM) it was 29.9 ± 2.4%; with hTERT-HMEC (setting [1]), 5.18 ± 0.59%; in the data set on hTERT-HMEC (protein concentration 0.225 µM), 11.6 ± 0.88%.

On to “MQCWQQPFLRFLQQPFFLATASLAGSSSSFNVLIPKRDEDGDGEGPGDVTAGVSRAAGSPSGWEAPWVQQPRCCRRATPVCCAGQGPPRSLQQGGSEVLLGQLCSPEPDWLPSSGPKVAKQVFQVAAELLQHPEHFVPSSVPEGCVHKPGSTCDGSLKGRAYPSCVPKRDPEHSREESHPLSG [Q6UXR6]”, for which the “percentage of EdU-negative” value worked out at 26.15 ± 0.12% in the data set on MCF7 (setting [1]), 26.1 ± 0.63% in the data set with MCF7 (protein concentration 0.225 µM), 4.87 ± 0.51% with hTERT-HMEC (setting [1]) and 4.95 ± 1% in the data set with hTERT-HMEC (protein concentration 0.225 µM).

Consider “MQGAQEASASEMLPLLLPLLWAGALAQERRFQLEGPESLTVQEGLCVLVPCRLPTTLPASYYGYGYWFLEGADVPVATNDPDEEVQEETRGRFHLLWDPRRKNCSLSIRDARRRDNAAYFFRLKSKWMKYGYTSSKLSVRVMALTHRPNISIPGTLESGHPSNLTCSVPWVCEQGTPPIFSWMSAAPTSLGPRTTQSSVLTITPRPQDHSTNLTCQVTFPGAGVTMERTIQLNVSYAPQKVAISIFQGNSAAFKILQNTSSLPVLEGQALRLLCDADGNPPAHLSWFQGFPALNATPISNTGVLELPQVGSAEEGDFTCRAQHPLGSLQISLSLFVHWKPEGRAGGVLGAVWGASITTLVFLCVCFIFRVKTRRKKAAQPVQNTDDVNPVMVSGSRGHQHQFQTGIVSDHPAEAGPISEDEQELHYAVLHFHKVQPQEPKVTDTEYSEIKIHK”, for which the “percentage of EdU-negative” value turned out to be 22.4 ± 2.3% in the data set on MCF7 (setting [2]), 27.1 ± 0.29% with MCF7 (setting [3]), 5.1074 ± 0.0018% in the data set with hTERT-HMEC (setting [2]) and 5.306 ± 0.046% in the data set on hTERT-HMEC (setting [3]).

For “MQGPWVLLLLGLRLQLSLGIIPVEEENPDFWNRQAAEALGAAKKLQPAQTAAKNLIIFLGDGMGVSTVTAARILKGQKKDKLGPETFLAMDRFPYVALSKTYSVDKHVPDSGATATAYLCGVKGNFQTIGLSAAARFNQCNTTRGNEVISVMNRAKKAGKSVGVVTTTRVQHASPAGAYAHTVNRNWYSDADVPASARQEGCQDIATQLISNMDIDVILGGGRKYMFPMGTPDPEYPDDYSQGGTRLDGKNLVQEWLAKHQGARYVWNRTELLQASLDPSVTHLMGLFEPGDMKYEIHRDSTLDPSLMEMTEAALLLLSRNPRGFFLFVEGGRIDHGHHESRAYRALTETIMFDDAIERAGQLTSEEDTLSLVTADHSHVFSFGGYPLRGSSIFGLAPGKARDRKAYTVLLYGNGPGYVLKDGARPDVTESESGSPEYRQQSAVPLDGETHAGEDVAVFARGPQAHLVHGVQEQTFIAHVMAFAACLEPYTACDLAPRAGTTDAAHPGPSVVPALLPLLAGTLLLLGTATAP”, the “percentage of EdU-negative” value with MCF7 (setting [1]) stood at 23.9 ± 3.7%; in the data set on MCF7 (protein concentration 0.225 µM), 27.2 ± 0.72%; in the data set with hTERT-HMEC (setting [1]) it was 4.62 ± 0.18%; in the data set with hTERT-HMEC (protein concentration 0.225 µM), 5.34 ± 0.29%.

Turning to “MQGPWVLLLLGLRLQLSLGVIPAEEENPAFWNRQAAEALDAAKKLQPIQKVAKNLILFLGDGLGVPTVTATRILKGQKNGKLGPETPLAMDRFPYLALSKTYNVDRQVPDSAATATAYLCGVKANFQTIGLSAAARFNQCNTTRGNEVISVMNRAKQAGKSVGVVTTTRVQHASPAGTYAHTVNRNWYSDADMPASARQEGCQDIATQLISNMDIDVILGGGRKYMFPMGTPDPEYPADASQNGIRLDGKNLVQEWLAKHQGAWYVWNRTELMQASLDQSVTHLMGLFEPGDTKYEIHRDPTLDPSLMEMTEAALRLLSRNPRGFYLFVEGGRIDHGHHEGVAYQALTEAVMFDDAIERAGQLTSEEDTLTLVTADHSHVFSFGGYTLRGSSIFGLAPSKAQDSKAYTSILYGNGPGYVFNSGVRPDVNESESGSPDYQQQAAVPLSSETHGGEDVAVFARGPQAHLVHGVQEQSFVAHVMAFAACLEPYTACDLAPPACTTDAAHPVAASLPLLAGTLLLLGASAAP”, the “percentage of EdU-negative” value stood at 24.8 ± 1.8% with MCF7 (setting [1]), 24.4 ± 0.42% in the data set with MCF7 (protein concentration 0.225 µM), 5.37 ± 0.33% with hTERT-HMEC (setting [1]) and 6.16 ± 1.5% with hTERT-HMEC (protein concentration 0.225 µM).

Take “MQIITTALVCLLLAGMWPEDVDSKSMQVPFSRCCFSFAEQEIPLRAILCYRNTSSICSNEGLIFKLKRGKEACALDTVGWVQRHRKMLRHCPSKRK”: the “percentage of EdU-negative” value in the data set on MCF7 (setting [1]) is 24.1 ± 3.4%; with MCF7 (protein concentration 0.225 µM), 25.4 ± 0.28%; in the data set on hTERT-HMEC (setting [1]) it was 4.79 ± 0.52%; in the data set with hTERT-HMEC (protein concentration 0.225 µM) it was 12 ± 1.1%.

Take “MQKVTLGLLVFLAGFPVLDANDLEDKNSPFYYDWHSLQVGGLICAGVLCAMGIIIVMSAKCKCKFGQKSGHHPGETPPLITPGSAQS”: the “percentage of EdU-negative” value was 26.4 ± 0.91% with MCF7 (setting [4]), 24.9 ± 1% in the data set on MCF7 (setting [5]), 4.87 ± 0.45% in the data set with hTERT-HMEC (setting [4]) and 4.969 ± 0.0066% in the data set with hTERT-HMEC (setting [5]).

Regarding “MQLPLALCLVCLLVHTAFRVVEGQGWQAFKNDATEIIPELGEYPEPPPELENNKTMNRAENGGRPPHHPFETKDVSEYSCRELHFTRYVTDGPCRSAKPVTELVCSGQCGPARLLPNAIGRGKWWRPSGPDFRCIPDRYRAQRVQLLCPGGEAPRARKVRLVASCKCKRLTRFHNQSELKDFGTEAARPQKGRKPRPRARSAKANQAELENAY [Q9BQB4]”, the “percentage of EdU-negative” value is 28.1 ± 1.4% in the data set with MCF7 (setting [1]), 34 ± 2% with MCF7 (protein concentration 0.225 µM), 5.07 ± 1.1% with hTERT-HMEC (setting [1]) and 18.6 ± 2.6% in the data set on hTERT-HMEC (protein concentration 0.225 µM).

As for “MQLQASLSFLLILTLCLELRSELARDTIKDLLPNVCAFPMEKGPCQTYMTRWFFNFETGECELFAYGGCGGNSNNFLRKEKCEKFCKFT”, the “percentage of EdU-negative” value with MCF7 (setting [4]) is 25.8 ± 1.5%; with MCF7 (setting [5]) it was 24.81 ± 0.086%; in the data set with hTERT-HMEC (setting [4]), 4.34 ± 0.046%; in the data set on hTERT-HMEC (setting [5]) it was 4.94 ± 0.32%.
